Key:
[1] = tested on: T98G and SF767 glioma cells; assay: Apoptotic assay (nuclear morphology of DAPI stained cells); format: cell-based, Human
Experimental: (§1) Human astrocytoma cell lines T98G, U87, U118, SNB19 (American Type Culture Collection) and SF767 (University of California at San Francisco) were maintained in Dulbecco's modified Eagle's medium (DMEM)+10% heat inactivated fetal bovine serum (FBS) in a 37° C., 5% CO2 atmosphere. In all assays treated with TWEAK, cells were cultured in reduced serum (0.5% FBS) for 16 h prior to stimulation with recombinant TWEAK at 100 ng/ml in DMEM+0.1% BSA for the indicated times.
Apoptotic cells were evaluated by nuclear morphology of DAPI stained cells as described previously (See Reference 11). Briefly, cells with condensed, fragmented chromatin were manually scored as apoptotic cells. At least five fields (total of 1000 cells) were evaluated, and data reported as apoptotic cells/total cells×100. Verification of apoptotic cells was conducted by co-immunofluorescence staining using a monoclonal antibody against activated cleaved caspase 3. At least 1000 cells per treatment were evaluated for condensed chromatin and activated caspase 3 (See Reference 11).
TWEAK stimulation of glioma cell survival depends on Akt2 function. SiRNA specific for Akt1 (FIG. 12) and Akt2 (FIG. 13) suppress expression of Akt1 and Ak2 protein in both. T98G and SF767 glioma cells. […] After 72 hours, protein lysates were collected and analyzed by Western blotting for Akt1, Akt2 and α-tubulin. […] Cells with condensed, fragmented chromatin were manually scored as apoptotic cells. At least 10 fields (total of 1000 cells) were evaluated and data reported as apoptotic cells/total cells×100. […]
(§2) In FIGS. 18 and 19, TWEAK-induced BAD phosphorylation on serine 136 is dependent upon Akt2 function. […] Cellular lysates were collected and analyzed for phosphorylated BAD Ser-136 and total BAD by ELISA. […] After 72 hours protein lysates were collected and analyzed by Western blotting for BAD and α-tubulin. […] Cells with condensed, fragmented chromatin were manually scored as apoptotic cells. At least 10 fields (total of 1000 cells) were evaluated and data reported as apoptotic cells/total cells×100. […]

[2] = tested on: Akt-Ser473 phosphorylation; assay: Western blot of Akt-Ser473 phosphorylation in TWEAK-treated glioma cells; format: cell-based, Human
Experimental: as §1
(§3) Immunoblotting and protein determination experiments were performed as described previously (See Reference 11). In some experiments, TWEAK (100 ng/ml) was preincubated with 2.5 μg/ml soluble Fn14-Fc decoy receptor or control Fc protein at 37° C. for 15 min before adding it to cells (See Reference 26). Also, in some cases, cells were pretreated with the PI3K inhibitor LY294002 (10 μM) for 10 min prior to TWEAK addition. For immunoprecipitation, cells were lysed on ice for 10 min in a buffer containing 10 mM Tris-HCl, pH 7.4, 0.5% Nonidet P-40, 150 mM NaCl, 1 mM phenylmethylsulfonyl fluoride, 1 mM EDTA, 2 mM sodium vanadate, 10 μg/ml aprotinin, and 10 μg/ml leupeptin (Sigma). […] Samples were then resuspended in 2×SDS sample buffer and boiled in the presence of 2-mercaptoethanol (Sigma), separated by SDS-PAGE, transferred to nitrocellulose for 1 h at 4° C., and proteins were detected as described previously (See Reference 27). […]
Referring now to FIG. 1, T98G and SF767 glioma cells were treated with TWEAK and then harvested at the indicated times. Protein lysates were analyzed by Western blotting using antibodies to Akt Ser-473, total Akt, and α-tubulin. […] Total cell lysates were collected after 10 min of TWEAK treatment and analyzed for phosphorylated Akt-473, total Akt, and α-tubulin. […] Cells were treated with TWEAK for 10 minutes and protein lysates were analyzed for phosphorylated Akt-473, total Akt, Rac1 and α-tubulin. […]

[3] = tested on: BAD (Ser 136) phosphorylation; assay: PhosphoBAD (Ser 136) sandwich ELISA; parameters: species or system Human; details: cell-based ELISA; glioma cells
Experimental: Phosphorylation levels of BAD (Ser 136) were determined using a cell-based ELISA. Glioma cells were transfected with siRNA oligonucleotides against AKT1, AKT2, or non-mammalian GL2 luciferase control siRNA and incubated overnight. The cells were cultured overnight in DMEM with 0.5% FBS prior to TWEAK or control PBS addition in DMEM with 0.1% BSA for 15 min. Total cellular lysates were collected according to manufacturer's instructions utilizing the PathScan Sandwich ELISA kit (Cell Signaling). Each sample (100 μg total protein) was diluted 1:1 in sample buffer for a final volume of 200 μL prior to addition to the designated microstrip wells previously coated by the manufacturer with a BAD rabbit monoclonal capture antibody. The microstrips were then sealed and incubated overnight at 4° C. on a plate shaker. […] Stop solution was omitted and absorbance read at 600 nm (See Reference 29).
as §2

Akt2 = assay: Immunoprecipitation with isoform-specific antibody, immunoblot for phospho Akt-473; format: cell-based, Human; details: T98G cells; TWEAK 10 min
Experimental: as §3
(§4) The protein expression of Akt1 and Akt2 across five different glioma cell lines was assessed. […]
(§5) Akt1 and Akt2 are expressed in glioma cell lines and are phosphorylated in TWEAK stimulated cells. Referring now to FIG. 10: T98G, SNB19, SF767, U87, and U118 cell lysates were analyzed for endogenous levels of Akt1 and Akt2 by Western blotting. To monitor gel loading, α-tubulin protein levels were also analyzed. […]

Akt1 = assay: as above; format: cell-based, Human; details: T98G cells; TWEAK 10 min
Experimental: as §3, §4, §5

B1: TWEAK: recombinant TWEAK, TNF superfamily ligand of the Fn14 receptor, used at 100 ng/ml (protein)
chain: SAPKGRKTRARRAIAAHYEVHPRPGQDGAQAGVDGTVSGWEEARINSSSPLRYNRQIGEFIVTRAGLYYLYCQVHFDEGKAVYLKLDLLVDGVLALRCLEEFSATAASSLGPQLRLCQVSGLLALRPGSSLRIRTLPWAHLKAAPFLTYFGLFQVH
effect of TWEAK pretreatment on apoptosis by cytotoxic or chemotherapeutic agents in cells with BAD expression suppressed ([1]; BAD siRNA transfected glioma cells): still protected glioma cells from apoptosis | effect of TWEAK pretreatment on TMZ induced cell death ([1]; TWEAK 100 ng/ml 2 hours before TMZ 200 μM): suppressed TMZ induced cell death | effect of TWEAK pretreatment on cytotoxic therapy-induced apoptosis ([1]; TWEAK 100 ng/ml 2 hours before TRAIL or camptothecin, control siRNA cells): abrogated cytotoxic therapy-induced apoptosis | Akt-Ser473 phosphorylation after TWEAK treatment (immunoblot of whole cellular lysates) ([2]; TWEAK 100 ng/ml, T98G and SF767 glioma cells): induction of Akt-Ser473 phosphorylation | duration of TWEAK treatment after which Akt-Ser473 phosphorylation diminished ([2]; TWEAK treatment, T98G and SF767): more than 1 hour | time after which phosphorylation of Akt-Ser473 was detected ([2]; TWEAK treatment, both T98G and SF767 cell lines): 5 min | amount of phosphorylated BAD-Ser136 upon TWEAK stimulation [3]: increased approximately two-fold | amount of total BAD upon TWEAK stimulation [3]: did not change significantly | induction of phosphorylation of Akt2 following TWEAK treatment (Akt2): two-fold induction | induction of phosphorylation of Akt1 following TWEAK treatment (Akt1): two-fold induction

From US9255270B2, “Methods used in sensitizing invasive glioblastoma to therapeutic treatment” (Translational Genomics Research Institute, priority 2009, dated 2016)
